Test results: article PMC7840946 (2021)
Like-named read-outs stand apart in the source and are kept apart here.

Legend:
[1] = molecular target: T1, PstS1 (Rv0934), recombinant, wild type (Mycobacterium tuberculosis, UniProt P9WGU1); experiment: SPR
[2] = molecular target: T1, PstS1 (Rv0934), recombinant, wild type; experiment: SPR; remark: listed apart in the source

T1 sequence (P9WGU1 25-374): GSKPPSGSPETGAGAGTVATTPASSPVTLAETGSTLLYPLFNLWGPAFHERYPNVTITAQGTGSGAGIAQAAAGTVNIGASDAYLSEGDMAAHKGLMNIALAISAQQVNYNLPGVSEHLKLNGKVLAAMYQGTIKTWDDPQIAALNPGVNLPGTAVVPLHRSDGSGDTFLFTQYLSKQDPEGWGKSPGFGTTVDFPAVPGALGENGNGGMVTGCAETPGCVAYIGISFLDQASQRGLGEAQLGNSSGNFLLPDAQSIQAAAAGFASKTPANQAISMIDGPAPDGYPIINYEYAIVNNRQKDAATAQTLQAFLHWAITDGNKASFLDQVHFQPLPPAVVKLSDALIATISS

Row | Binder | Kd [1] [nM] | Kd [2] [nM]
1 | mAb p4-163 (human IgG1) (antibody, V domains shown) VH: EVQLVESGGGLVKPGGSLRLSCAASGFTFESHRMHWVRQAPGKGLEWVSSIISSRTYIYYADSVKGRFTISRDNSRNSLFLQMNSLRAEDTAVYYCARGDYYYDGVASDPHFDNWGQGTLVTVSS VL: QSVLTQPPSASGTPGQRVTISCSGGRSNIGSNYVYWFQQLPGTAPQLLIYRNIQRPSGVPARFSGSKSGTSASLAISGLRSEDEADYYCATWDDSLSGVVFGGGTKVTVL | 4.45 | 
2 | mAb p4-170 (human IgG1) (antibody, V domains shown) VH: EVQLVESGGGLVKPGGSLRLSCAASGFTFSSHRMHWVRQAPGKGLEWVSSIISSRTYIYYADSVKGRFTISRDNSGNSLFLQMNSLRVEDTAVYYCARGDYYYDGVASDPHFDNWGQGTLVTVSS VL: QSVLTQTPSASGTPGQRVTISCSGSRSNIGSNYVYWFQQFPGAAPQLLIYRNIQRPSGVPARFSGSKSDTSASLAISGLRSEDEAHYYCAAWDDSLSGVVFGGGTKVTVL | 1.34 | 
3 | p4-36gl, predicted germline version of mAb p4-36 (antibody, V domains shown) VH: EVQLVESGGGLVQPGRSLRLSCTASGFTFGDYAMSWVRQAPGKGLEWVGFIRSKAYGGTTEYAASVKGRFTISRDDSKSIAYLQMNSLKTEDTAVYYCTGPRPYYDSSGYYPYYFDYWGQGTLVTVSS VL: QSALTQPRSVSGSPGQSVTISCTGTSSDVGGYNYVSWYQQHPGKAPKLMIYDVSKRPSGVPDRFSGSKSGNTASLTISGLQAEDEADYYCCSYAGSYTYVVFGGGTKLTVL |  | 6.85
